Assay [1] concerns the target recombinant 6xHis tagged human CLDN18.2 (human). Nature of the assay: SPR (Biacore T200), His tagged CLDN18.2 amine-coupled on CM5, antibody as analyte, 1:1 fit.
For assay [2] the target is unchanged. Nature of the assay: SPR (Biacore); same values as Table 30, where the antibody is ch97A9.
Assay [3] has as its target human CLDN18.2 as used in the Octet assay (human). Nature of the assay: Octet (BLI); format not described.
Assay [4] deals with mouse CLDN18.2 (mCLDN18.2), expressed on HEK293 cells (mouse) (UniProt P56857). Nature of the assay: FACS, HEK293/mCLDN18.2 cells.
Assay [5] has as its target biotin labeled hCLDN18.2 (human). As to the kind of experiment: competitive ELISA: excess antibody plus biotin labeled hCLDN18.2 on coated IMAB362; competitor IMAB362.
In assay [6] the target is recombinant 6xHis tagged human CLDN18.2 (human). As to the kind of experiment: SPR (Biacore); same values as Table 30, where the antibody is ch99H8.
Assay [7] shares this target. Nature of the assay: SPR (Biacore); same values as Table 30, where the antibody is hu35B4.H1L2.
Assay [8] has the same target. As to the kind of experiment: SPR (Biacore); same values as Table 30, where the antibody is hu22E12.H1L2.

B1: ch97A9 (antibody, V domains shown)
VH: QVQLQQSGPELVKPGASMKLSCKASGYSFTRNDINWVKQRPGQGLEWIGLSYPRDGTTQYNGKFKGKATLTVDTSSSTAYMELRSLTSEDSAVYFCARGYYGNSFAYWGQGTLVTVSA
VL: DIVMTQSPSSLTVTAGEKVTMSCKSSQSLLNSGNQKNYLTWYQQKPGQPPKLLIYWASTRESGVPDRFTGSGSGTYFTLTISSVQAEDLAVYFCQNDYYFPYTFGGGTKLEIK
As to B1, in assay [1], the Kd was 1.15 nM, the koff was found to be 0.000489 s⁻¹ and the kon came to 425000 M⁻¹ s⁻¹. Besides, in assay [2], the Kd is 1.15 nM.

B2: 22E12 (antibody, V domains shown)
VH: QVQLQQPGTELVKTGTSVKLSCKASGYTFTNWVHWVIQRPGQGLEWIGEINPTNGRSNYNEKFKKKATLTLDRSSTTAYMQLSSLTSEDSAVYFCAGIYYGNSFAHWGQGTLVTVSA
VL: DIVMTQSPSSLTVTAGEKVTLSCKSSQSLLNSGNQKNYLTWYQQKPGQPPKLLIYWSSTRESGVPDRFTGSGSGTDFTLTISSVQAEDLAVYHCQNNYYYPLTFGAGTKLELK
B2: the dissociation constant Kd in assay [3] is under 0.001 nM. In addition, in assay [4], the EC50 worked out at 0.9 nM. In addition, in assay [5], the Compete with IMAB362 (%) worked out at 49%.

B3: 97A9 (antibody, V domains shown)
VH: QVQLQQSGPELVKPGASMKLSCKASGYSFTRNDINWVKQRPGQGLEWIGLSYPRDGTTQYNGKFKGKATLTVDTSSSTAYMELRSLTSEDSAVYFCARGYYGNSFAYWGQGTLVTVSA
VL: DIVMTQSPSSLTVTAGEKVTMSCKSSQSLLNSGNQKNYLTWYQQKPGQPPKLLIYWASTRESGVPDRFTGSGSGTYFTLTISSVQAEDLAVYFCQNDYYFPYTFGGGTKLEIK
As to B3, in assay [3], the dissociation constant (Kd) came out at 2.2 nM. The molecule further yielded an EC50 in assay [4] of 1.4 nM. The Compete with IMAB362 (%) in assay [5] stood at 92%.

B4: ch99H8 (antibody, V domains shown)
VH: QVQLQQSGPELVKPGASVKLSCKASGYSFTNFDINWVKQRPGQGLQWIGRLYPRDGTTTYNEKFKGKASLTVDTSSTTSYMDLHSLTSEDSAVYFCVRGNYGNSFAYWGQGTLVTVSA
VL: DIVMTQSPSSLTVTAREKVIMNCKSSQSLFNSGNQKNYLTWYQQKPGQSPKLLIYWASTRQSGVPDRFTGSGSGTDFTLTISTVQAEDLAVYFCQNGFSFPYTFGGGTKLEMN
B4: in assay [1], the Kd worked out at 1.75 nM, the off-rate constant (koff) turned out to be 0.000355 s⁻¹ and the kon was determined as 203000 M⁻¹ s⁻¹. In assay [6], the equilibrium dissociation constant (Kd) worked out at 1.75 nM.

B5: 99H8 (antibody, V domains shown)
VH: QVQLQQSGPELVKPGASVKLSCKASGYSFTNFDINWVKQRPGQGLQWIGRLYPRDGTTTYNEKFKGKASLTVDTSSTTSYMDLHSLTSEDSAVYFCVRGNYGNSFAYWGQGTLVTVSA
VL: DIVMTQSPSSLTVTAREKVIMNCKSSQSLFNSGNQKNYLTWYQQKPGQSPKLLIYWASTRQSGVPDRFTGSGSGTDFTLTISTVQAEDLAVYFCQNGFSFPYTFGGGTKLEMN
In turn, B5 had an equilibrium dissociation constant (Kd) in assay [3] of 2 nM. This molecule also returned an EC50 in assay [4] of 3.5 nM.

B6: hu35B4.H1L2 (antibody, V domains shown)
VH: EVQLLESGGGLVQPGGSLRLSCAASGFTLSSYALSWVRQAPGKGLEWVSYISNLGGSTFYPDTVKGRFTISRDNSKNTLYLQMNSLRAEDTAVYYCAKHLYNYDAFASWGQGTLVTVSS
VL: DIQLTQSPSFLSASVGDRVTITCRASSSVNYIHWYQQKPGKAPKALIYATSNLASGVPSRFSGSGSGTEYTLTISSLQPEDFATYYCQQWNSNPLTFGQGTKLEIK
Turning to B6, in assay [1], the dissociation constant (Kd) amounted to 1.57 nM, the koff came out at 0.00035 s⁻¹ and the kon was determined as 222000 M⁻¹ s⁻¹. In addition, the Kd in assay [7] worked out at 1.57 nM.

B7: hu22E12.H1L2 (antibody, V domains shown)
VH: QVQLVQSGAEVKKPGASVKVSCKASGYTFTNWVHWVRQAPGQGLEWMGEINPTNARSNYNEKFKKRVTMTRDTSTSTVYMELSSLRSEDTAVYYCARIYYGNSFAHWGQGTLVTVSS
VL: DIVMTQSPDSLAVSLGERATINCKSSQSLLNAGNQKNYLTWYQQKPGQPPKLLIYWSSTRESGVPDRFSGSGSGTDFTLTISSLQAEDVAVYHCQNNYYYPLTFGGGTKLEIK
In the case of B7, in assay [1], the Kd was found to be 0.26 nM, the koff stood at 0.000202 s⁻¹ and the on-rate (kon) came out at 778000 M⁻¹ s⁻¹. Moreover, the dissociation constant Kd in assay [8] is 0.26 nM.

B8: 35B4 (antibody, V domains shown)
VH: EAKLVESGGDFMQPGGSLKLSCAASGFTLSSYALSWVRQTPEKRLEWVAYISNLGGSTFYPDTVKGRFTISRDNARNTLFLQMSSLQSEDTAIYYCATHLYNYDAFASWGQGTLVTVSA
VL: QIVLSQSPAILSASPGEKVTMTCRASSSVNYIHWYQQKPGSSPKAWIYATSNLASGVPTRFSGSGSGTSYSLTIDRVEAEDAATYYCQQWNSNPLTFGAGTKLELK
In turn, B8 came in with a Kd in assay [3] of 3.3 nM. The molecule also displayed an EC50 in assay [4] of 1.9 nM. The Compete with IMAB362 (%) in assay [5] was found to be 81%.

B9: 33G12 (antibody, V domains shown)
VH: EVKLVESGGGLVQPGGSLKLSCAASGFTFSRYAMSWVRQTPEKRLEWVAYISIGGTTYYPDTIKGRFTISRDNAKNTLYLQMSSLKSEDTAMYYCTRHYYGHDVMDYWGQGTSVTVSS
VL: QIVLSQSPTILSASPGEKVTMTCRATSSVSYMHWFQQKPGSSPKPWIYATSNLASGVPARFSGSGSGTSYSLTISRVEAEDAATYYCQQWSRNPLTFGAGTKLELK
B9 gave a Kd in assay [3] of 6.2 nM. Also, in assay [4], the EC50 turned out to be 1.7 nM. Further, the Compete with IMAB362 (%) in assay [5] amounted to 87%.

(Values after patent US20240270839A1.)
